Experimental data from the DeepSol protein solubility set.

Experiment: soluble on expression in E. coli; label from the status in PepcDB or PDB records

Soluble on expression in E. coli, not soluble:
MGSDKIHHHHHHMEFTKKSKLKNMYVNMNVARMLSKINEYKGRQLLYKKQPKEILENLEKKSLVDCSESTYIGNQRDSSNFNLEKLISNEVTPRSREELSIVEYRDVVKTINSAYESIPISSQTILELHGYLYKFSSTRGGSYKSDNDFIEHNLKPSEFISTDSSVNKVEKAVEEICEAYNTLIEEDEIDILILISAFVLDFILIHPFKEGNIKMARVLILLLLNKNGYEVGRYISLGKIFDDSSYEYYSNLNYLKASIGSEKADMNAWIEYFLETILTAYEKLDDSLNISDKKRQTKTSRIEKIINSTLGYFTKEDIRDLCPDIPEPTINRVFNNLRKQDKIEVVARGRSAKWKKKY
MGSDKIHHHHHHMEHIEKLNAVLKHIKTSFVGKDEIIDLLGISLIARENAFLLGPPGTAKSAIIRALSACISDGKNFEYLLTRFTEPGELFGPFDIRKLKEGDLVTNTEGMMPEASMVFLDEIFNANSAILNSLLTALNERIFRRGKETKKLPALMFIGASNVLPEDESLNALLDRFLIRARCDYVDTDLLEEVLVAGWNLETRNQNQKPAIAPAEIIELQQYAKQVDVSTVRRQYVDLIHNLRNTGIKISDRRAVKIQNLLAASAVMSNRKEVIPSDLWVLKHVWDTEEQIEILEGIINTIIEKDTNPLAHPQAQYNKTPNAEELIKEIIQLTEKWESGNLSFEEQNVVKDKLRYLQTRSNWIKNNEHKLHIQEKIESLWHKMLQTI
MGSDKIHHHHHHMEIRPEMFGQARAGAAWPDFGKPHVLRCDTGRSALKLALQCWAGRAGRDFTVWLPHYVCHSVAQAVRQAGHALAYYGHRPSEQIFSPPPTPQAGDLVLLVHYFGLRNRAALDWLSAHATRDFAVLEDCVQSPYTAGVGRLADFAISSLRKWWPTPDGATLASVYALDGLDLAASDEAFISQRMAAKQLRARGIGEERYLQWIDESESRLDDVVPRQASWLAASLLGEADIDVAMAARRENWFALAQGLAGLRGVAPLFRELAVDEIPLAYPVVVSATNRQKLRAALRDRRVFCPVHWDLESDAPEADTLLSARILSIPLDQRYAPADMRKVASMIGEFIAEELN
MGSDKIHHHHHHMEKQNNHIDRRGFLKIVGISAATTTAALYGCGSGTKSSQGRNASSPVPTDQMTYRSVGGIKDKVSLLGYGCMRWPTVPSPEGKGDLINQEAVNELVDYAIAHGVNYFDTSPVYVQGWSEKATGIALKRHPREKLYIATKLSNFSNFSRENSLAMYHQSFKDMQVEYFDYYLLHAIGGGGMKVFNERYIDNGMLDFLLKEREAGRIRHLGWSFHGDVEVFDQVLAMHDTVKWDFVQIQLNYVDWRHATGNNVNAEYLYGELAKRNIAAVIMEPLLGGRLSNVPEHIVGRLKQRRPEDSVASWAFRFAGSPELVLTVLSGMTYMEHLQDNIRTYSPLVPLTDDDKEYLEETAQLMMQYPTIPCNDCKYCMPCPYGIDIPAILVHYNKCVNEGNIPQSQTSENYKEARRAFLVGYDRSVPKLRQASHCIGCNQCTPHCPQSIHIPEELHRIDRFVEQLKQGTL
MGSDKIHHHHHHMEMKMQQIDILRKLSEVWRLFGDMPDDTTLSVDLAALYLGISVKTLARYRQSGGGPSYIQYQSEGSQARNQRVNYLLKDLRSWRDNHKVSNTMHAAQVRGLAFDSLLDFCKPQPFWQVTDKSSSRDKSKILSHALTIPDDDFKKKLLEPNADIVWISIEEALFNEWQTADERQKWNDIFKEFLNEIISASNAAQEKHILNAILK
MGSDKIHHHHHHMENFVRNSKLNIEKEIKRIEQQPIALLERIKQIIDVIQTSLTLLKRAVAEYQFQNPEEEIQFFKVWKPQISGLLMFYIRLYQIEKNRVGKSLSAQCKYLKMELENIQKSFLNNSFYDYYRAGQTELDNQYFIRENYDILSDVHCHLLDRDSSFTTLHDSSVAMILANSHLIEYVSDEIDSLSDKLHLKFTSIVDSKLLQWTDSKVALVEFIYAIYAGKCFNNGNTSLKDIAFCCEILFNIEIGDFYRIFLEIRNRKKSRTQFLDKLKDKIQKMMEELDR
MGSDKIHHHHHHMENIMLQEIELKLAISPQIGIELPQYLAKFTILEHQNLFLGNTYYDYPDHFLAKQKMGLRIRQEDQELTLTLKTNGKVVSGLHSRPEYNLPLIEKETPTNAQLRGLYPFEQLPSSTLQPIFSTDFNRTFWLVEFQQSKIEVAFDQGKIIAGEYEQPISEIEFELKSGNVQDLFDFVETLPFERDIYFSSASKAKRGYLLGSKQFLTDWLNKWRDFLKEEREESAVDFCAKFNAVLKMEQKLLEETLSFSPTLFSQDFMKTVERVGAFFNLYHYYDENGKILEAMATEKQKETRLPALLESNQKIFVEIRDLIRFHSETKDNEKTIEKLTALLKSRVYFERMIKLMELSYDLG
MGSDKIHHHHHHMEQQIPFSYVIISPENATEKEGYMISTIDKCGFFFCQKGEVEVALNDKSYLISKGSVCIYMTGSLLRIQRISKDIKGIMLEVDLNYIIPIVNKIVNSENLLYLRENPCFSITEYQYNYLEQLIKALQQRMDIKAHDIPLQRQHLISELIKSWGQTLCYELLNVYFTNQPLKPLSQDKKDKIFQNFVITLFRYYQQERDVTFYASKQYLSSRYFSAVIKEKSGSTALQWIVQMVITEAKQLLENSDLTIKEIATKLNFPTQSFFGKYFKQYVGVSPKEYRNKQIRQLPF
MGSDKIHHHHHHMEQYKEVHINSLNKEELEKLAKMGQLIDVRTKEEYELGHINGSTLHPVEEIKSFNKNSNKTYYIHCKSGNRSTKACDYLAKQGYDVVNLKGGYKDYEAKNFNSAPLIEKDIEIKENRKQFDFRGLQCPGPIVNISKEINNISTGEQIEVTVTDPGFNSDIKSWAKQTGNTLVNLTEEANVINAIIQKEKPKEFEINDTATGTTIVLFSGELDKAVAAMIIANGAKAAGKDVTIFFTFWGLNALKKAQSTRVKKKGISKMFDLMLPKDPIHMPLSKMNMFGLGNIMMRYVMNKKNVDSLYSLIDQAIDQDIKLIACTMSMDVMGISKEELRDEVDYGGVGTYIGHTEQANHNLFI
MGSDKIHHHHHHMERIDEILSQLTTEEKVKLVVGVGLPGLFGNPHSRVAGAAGETHPVPRLGIPAFVLADGPAGLRINPTRENDENTYYTTAFPVEIMLASTWNRDLLEEVGKAMGEEVREYGVDVLLAPAMNIHRNPLCGRNFEYYSEDPVLSGEMASAFVKGVQSQGVGACIKHFVANNQETNRMVVDTIVSERALREIYLKGFEIAVKKARPWTVMSAYNKLNGKYCSQNEWLLKKVLREEWGFDGFVMSDWYAGDNPVEQLKAGNDMIMPGKAYQVNTERRDEIEEIMEALKEGKLSEEVLDECVRNILKVLVNAPSFKGYRYSNKPDLESHAEVAYEAGAEGVVLLENNGVLPFDENTHVAVFGTGQIETIKGGTGSGDTHPRYTISILEGIKERNMKFDEELASTYEEYIKKMRETEEYKPRTDSWGTVIKPKLPENFLSEKEIKKAAKKNDVAVVVISRISGEGYDRKPVKGDFYLSDDELELIKTVSKEFHDQGKKVVVLLNIGSPIEVASWRDLVDGILLVWQAGQEMGRIVADVLVGKINPSGKLPTTFPKDYSDVPSWTFPGEPKDNPQRVVYEEDIYVGYRYYDTFGVEPAYEFGYGLSYTKFEYKDLKIAIDGETLRVSYTITNTGDRAGKEVSQVYIKAPKGKIDKPFQELKAFHKTKLLNPGESEEISLEIPLRDLASFDGKEWVVESGEYEVRVGASSRDIRLRDIFLVEGEKRFKP
MGSDKIHHHHHHMERMSIKYFVNNNSLGPDRNISSVGFEEIPPNTSYPTLNHSAGYYFNPDKGRILTEYQLIYITEGEGVLETRSGGVFTIKRGMIFVLFPGEWHTYYPNYQTGWSHYWIGFCGPEVDSWMTNEYCSKESPVFKVGINDEIVSLFRKAIDVANEEPTLYQRVLSGLVTYLVALMCSIDKNLQVENDDFSSKIDYACVLMKELIDQPVSMQEIAKKAGMGYSLFRKLFKEQKNYAPVQYFQNLKIQKAIELLTTTTIPVKEIAYRLDFESPAYFSARFKKQTGKSPIEYREEFRIK
MGSDKIHHHHHHMESITLTADLDALAKTSAFITAAAERCGLDERATWQVQLAVDEAVTNVIQHAYDPDQPGDFTLSWQCHDQRFIVTVRDHGRQFDPSTVPVPDITSPLEERQVGGLGIYLITRLMDEVHFEFSPQGGNLLTMVKYLPSDQAEEANEVVVIPINDRIDALTAPRLSKTVNEQISQGARQIVLDFSNVPFLSSSGLRALLLIRKELMTLGGELRLAALQPQVHEVFTITGFTQVFNIHPSVTEARAAFSQRR
MGSDKIHHHHHHMESTRRIYASPSYEVYGLSRNPFIELASEGIEDIESIHVYQEVDMRISSLISDVIGNRSSITLSIVGPLGMGKTQRLKSIARVIEDRGGKVIYIKVDTTDVLKITRDIFASLRPPKNRTNVFLENLSRKLGFITRLEKMLSSTDEYKSRDIAEMLTRELSKYQYSALLLDELENMRGATEKEKILFFEMLRHFISNMPPGCVFAFASIPEAYEEYSSQFPAFFMRLHYEFKLRPMSYQEIIELVKKRLAKVRIRDTADPLYPFTEDAIKLIHELGKGNPRQILRLLNYVLSEAVKHKFDPINEYVVTTILEEPKSLEEYIARIPSDFKDLVKVIVEKFEGGPVSYIQIAKELKIPGMEAYEKLEHLVSLGFLVGDPRGNYKVPDYVRKFLEEKGE
MGSDKIHHHHHHMETARHRNTWHIHPDPEALARRLAAAVARMAREAITARGAFHLVVAGGTTPRAAYALLPQLGSDWQCWHLYHGDERCLPPQDPDRNSLMLDTVWLSRVPIPTRQIHHIPAERGADVAARDYAAVLPPHAFDLVLLGVGEDGHTASLFPGHDWGMAKNGPATIAVHDAAKAPPQRVSLSGWRLQYTREMFFMAAGGGKRSALTAWRQGEPIPAATVGTTADIWLDNTAWPEVVPGTI
MGSDKIHHHHHHMETLRILHTNDLHSHFEHFPKIRRYLKQVQETAAADQVLTFDAGDFMDRSHPLSDATEGQANIRLMNDFHYDAITIGNNEGISNPHAVLERLFDHANFPVLLSNLREEDESWPAWANDYKIIKTKKGTRLALVGLTAAYPMTYGPNHWQIKMLGETMDRVLPEIAGQYDCLILLTHVGLRMDQWLAKHYPEIDLIVGGHSHTLLEKGVKEGRTWITQTDKWGNYVGDISLEIGDDHKIISIKPTTVPVADLPSQAGDEAEIAALYEEGQKMLQSRHVADLPEKFKDDKLAAIDVSLEAIADFAGTDLAMLSTGLFLTPFKGGLINQFDLQHALPHPMHVVRTTLLGRDLWRLVMEVEKNRHFLENYPLVGMSFRGKIFGQVYYRGIKYDPMTRNVFVNGQLLDPAEEYRIAVLDHYVLIPFFPTLAIVGENEFLFPQFLREVVGDYLGRKYPMKKEGE
MGSDKIHHHHHHMEVAAVDSLEALYKMVAKLYRRLSASARKRLLEGVELAAEKGDPALAYHRLSTLARDYYGDSLPYASDGYYKTYKHTRCVGLPEPTKVSGVDVLEAIRRRRSRRSFSRRPLTLTEVSTILFHVAGITGLAWWGGPKRPYPSAGALQPVEAYLVVERVEGLKPGLYHYNPSGHCLEMLREGKLLGRLADVSLGQDHVAEAAAALVLTAVYTRTGSKYGHRSYRYVHWDTGFAGENVYLVCEALGLATVAVGAFYDDEMCGFLEIDCPWEMPMLVFPVGARG
MGSDKIHHHHHHMEVLYRKYRPKTFSEVVNQDHVKKAIIGAIQKNSVAHGYIFAGPRGTGKTTLARILAKSLNCENRKGVEPCNSCRACREIDEGTFMDVIELDAASNRGIDEIRRIRDAVGYRPMEGKYKVYIIDEVHMLTKEAFNALLKTLEEPPSHVVFVLATTNLEKVPPTIISRCQVFEFRNIPDELIEKRLQEVAEAEGIEIDREALSFIAKRASGGLRDALTMLEQVWKFSEGKIDLETVHRALGLIPIQVVRDYVNAIFSGDVKRVFTVLDDVYYSGKDYEVLIQEAVEDLVEDLERERGVYQVSANDIVQVSRQLLNLLREIKFAEEKRLVCKVGSAYIATRFSTTNVQENDVREKNDNSNVQQKEEKKETVKAKEEKQEDSEFEKRFKELMEELKEKGDLSIFVALSLSEVQFDGEKVIISFDSSKAMHYELMKKKLPELENIFSRKLGKKVEVELRLMGKEETIEKVSQKILRLFEQEG
